Earlier results in article PMC5490247.
Read-outs that look alike come from different tables or passages of the source.

Legend:
IL-6R (Homo sapiens) [1] = target: IL-6R (Homo sapiens) (UniProt P08887)
IL-6R (Homo sapiens) [2] = target: IL-6R (Homo sapiens) (UniProt P08887); remark: listed apart in the source

Chain of UniProt P08887 (P08887 20-355): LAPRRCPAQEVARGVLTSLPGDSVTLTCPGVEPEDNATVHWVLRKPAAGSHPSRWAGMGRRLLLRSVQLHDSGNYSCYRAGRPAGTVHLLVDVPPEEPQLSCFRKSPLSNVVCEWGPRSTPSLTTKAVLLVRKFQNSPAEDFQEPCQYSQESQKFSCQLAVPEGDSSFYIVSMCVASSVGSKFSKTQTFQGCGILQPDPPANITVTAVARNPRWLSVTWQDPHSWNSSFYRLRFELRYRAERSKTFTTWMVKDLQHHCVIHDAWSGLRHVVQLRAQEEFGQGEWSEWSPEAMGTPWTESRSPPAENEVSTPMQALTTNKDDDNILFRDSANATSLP

| Kd (IL-6R (Homo sapiens) [1]) | Kd (IL-6R (Homo sapiens) [2]) | Substance |
| --- | --- | --- |
| 1 nM | – | IL-6 (from UniProt P05231) |
| – | 2.54 nM | Tocilizumab |
